Blank lines part the entries; values can stand above or below the binder they belong to.
Legend:
P1-AA = target: T1, P1-AA; assay: two-hybrid library CCmax;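 further: natural log of median RNA to DNA barcode read ratio; higher means stronger binding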
T1 chain: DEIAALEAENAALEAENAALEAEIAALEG

P10-AA = target: T2, P10-AA; assay: two-hybrid library CCmax; conditions: mean of both orientations;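 further: natural log of median RNA to DNA barcode read ratio; higher means stronger binding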
T2 chain: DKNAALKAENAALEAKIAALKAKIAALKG

P11-AA = target: T3, P11-AA; assay: two-hybrid library CCmax; conditions: mean of both orientations;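 further: natural log of median RNA to DNA barcode read ratio; higher means stronger binding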
T3 chain: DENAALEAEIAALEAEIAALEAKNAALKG

P12-AA = target: T4, P12-AA; assay: two-hybrid library CCmax; conditions: mean of both orientations;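 further: natural log of median RNA to DNA barcode read ratio; higher means stronger binding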
T4 chain: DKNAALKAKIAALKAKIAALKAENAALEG

P2-AA-12HAA-D = target: T5, P2-AA-12HAA-D; assay: two-hybrid library CCmax; conditions: mean of both orientations
T5 chain: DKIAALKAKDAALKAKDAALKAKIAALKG

P2-AA-12HAA-E = target: T6, P2-AA-12HAA-E; assay: two-hybrid library CCmax; conditions: mean of both orientations
T6 chain: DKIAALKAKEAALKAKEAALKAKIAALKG

P2-AA-12HAA-H = target: T7, P2-AA-12HAA-H; assay: two-hybrid library CCmax; conditions: mean of both orientations
T7 chain: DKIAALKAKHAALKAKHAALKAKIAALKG

P2-AA-12HAA-I = target: T8, P2-AA-12HAA-I; assay: two-hybrid library CCmax; conditions: mean of both orientations
T8 chain: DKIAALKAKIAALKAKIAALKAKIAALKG

P2-AA-12HAA-K = target: T9, P2-AA-12HAA-K; assay: two-hybrid library CCmax; conditions: mean of both orientations
T9 chain: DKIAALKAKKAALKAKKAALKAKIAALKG

P2-AA-12HAA-L = target: T10, P2-AA-12HAA-L; assay: two-hybrid library CCmax; conditions: mean of both orientations
T10 chain: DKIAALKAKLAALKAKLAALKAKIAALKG

P2-AA-12HAA-R = target: T11, P2-AA-12HAA-R; assay: two-hybrid library CCmax; conditions: mean of both orientations
T11 chain: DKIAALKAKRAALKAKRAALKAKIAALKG

P2-AA-12HAA-S = target: T12, P2-AA-12HAA-S; assay: two-hybrid library CCmax; conditions: mean of both orientations
T12 chain: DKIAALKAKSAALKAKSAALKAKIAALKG

P2-AA-12HAA-T = target: T13, P2-AA-12HAA-T; assay: two-hybrid library CCmax; conditions: mean of both orientations
T13 chain: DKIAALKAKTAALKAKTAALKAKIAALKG

P2-AA-12HAA-V = target: T14, P2-AA-12HAA-V; assay: two-hybrid library CCmax; conditions: mean of both orientations
T14 chain: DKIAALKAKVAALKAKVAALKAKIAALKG

P2-AA-12HAA-Y = target: T15, P2-AA-12HAA-Y; assay: two-hybrid library CCmax; conditions: mean of both orientations
T15 chain: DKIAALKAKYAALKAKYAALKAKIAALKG

P2-AA-12HGe-A = target: T16, P2-AA-12HGe-A; assay: two-hybrid library CCmax; conditions: mean of both orientations
T16 chain: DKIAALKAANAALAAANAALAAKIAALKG

P2-AA-12HGe-D = target: T17, P2-AA-12HGe-D; assay: two-hybrid library CCmax; conditions: mean of both orientations
T17 chain: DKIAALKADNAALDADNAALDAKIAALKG

P2-AA-12HGe-E = target: T18, P2-AA-12HGe-E; assay: two-hybrid library CCmax; conditions: mean of both orientations
T18 chain: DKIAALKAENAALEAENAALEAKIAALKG

P2-AA-12HGe-H = target: T19, P2-AA-12HGe-H; assay: two-hybrid library CCmax; conditions: mean of both orientations
T19 chain: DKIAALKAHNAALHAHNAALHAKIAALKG

P2-AA-12HGe-M = target: T20, P2-AA-12HGe-M; assay: two-hybrid library CCmax; conditions: mean of both orientations
T20 chain: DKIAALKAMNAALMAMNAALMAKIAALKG

P2-AA-12HGe-Q = target: T21, P2-AA-12HGe-Q; assay: two-hybrid library CCmax; conditions: mean of both orientations
T21 chain: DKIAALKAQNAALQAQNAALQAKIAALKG

P2-AA-12HGe-R = target: T22, P2-AA-12HGe-R; assay: two-hybrid library CCmax; conditions: mean of both orientations
T22 chain: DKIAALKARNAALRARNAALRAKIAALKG

P2-AA-12HGe-S = target: T23, P2-AA-12HGe-S; assay: two-hybrid library CCmax; conditions: mean of both orientations
T23 chain: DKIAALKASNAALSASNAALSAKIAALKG

P2-AA-12HGe-T = target: T24, P2-AA-12HGe-T; assay: two-hybrid library CCmax; conditions: mean of both orientations
T24 chain: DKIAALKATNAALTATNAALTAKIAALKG

P2-AA-12HGe-W = target: T25, P2-AA-12HGe-W; assay: two-hybrid library CCmax; conditions: mean of both orientations
T25 chain: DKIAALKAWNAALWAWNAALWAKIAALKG

P2-AA-1HAA-D = target: T26, P2-AA-1HAA-D; assay: two-hybrid library CCmax; conditions: mean of both orientations
T26 chain: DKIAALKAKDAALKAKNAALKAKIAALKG

P2-AA-1HAA-E = target: T27, P2-AA-1HAA-E; assay: two-hybrid library CCmax; conditions: mean of both orientations
T27 chain: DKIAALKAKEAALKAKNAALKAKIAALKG

P2-AA-1HAA-H = target: T28, P2-AA-1HAA-H; assay: two-hybrid library CCmax; conditions: mean of both orientations
T28 chain: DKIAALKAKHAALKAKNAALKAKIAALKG

P2-AA-1HAA-I = target: T29, P2-AA-1HAA-I; assay: two-hybrid library CCmax; conditions: mean of both orientations
T29 chain: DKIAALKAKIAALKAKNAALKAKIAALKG

P2-AA-1HAA-R = target: T30, P2-AA-1HAA-R; assay: two-hybrid library CCmax; conditions: mean of both orientations
T30 chain: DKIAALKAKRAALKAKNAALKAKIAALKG

P2-AA-1HAA-S = target: T31, P2-AA-1HAA-S; assay: two-hybrid library CCmax; conditions: mean of both orientations
T31 chain: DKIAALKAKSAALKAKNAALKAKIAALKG

P2-AA-1HAA-T = target: T32, P2-AA-1HAA-T; assay: two-hybrid library CCmax; conditions: mean of both orientations
T32 chain: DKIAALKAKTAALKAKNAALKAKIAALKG

P2-AA-1HAA-V = target: T33, P2-AA-1HAA-V; assay: two-hybrid library CCmax; conditions: mean of both orientations
T33 chain: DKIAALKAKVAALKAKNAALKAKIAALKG

P2-AA-1HGe-A = target: T34, P2-AA-1HGe-A; assay: two-hybrid library CCmax; conditions: mean of both orientations
T34 chain: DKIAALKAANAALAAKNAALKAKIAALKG

P2-AA-1HGe-D = target: T35, P2-AA-1HGe-D; assay: two-hybrid library CCmax; conditions: mean of both orientations
T35 chain: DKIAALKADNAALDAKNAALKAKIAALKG

P2-AA-1HGe-M = target: T36, P2-AA-1HGe-M; assay: two-hybrid library CCmax; conditions: mean of both orientations
T36 chain: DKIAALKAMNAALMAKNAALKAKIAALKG

P2-AA-1HGe-Q = target: T37, P2-AA-1HGe-Q; assay: two-hybrid library CCmax; conditions: mean of both orientations
T37 chain: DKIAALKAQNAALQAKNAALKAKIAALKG

P2-AA-1HGe-T = target: T38, P2-AA-1HGe-T; assay: two-hybrid library CCmax; conditions: mean of both orientations
T38 chain: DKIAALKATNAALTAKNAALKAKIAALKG

P2-AA-1HGe-W = target: T39, P2-AA-1HGe-W; assay: two-hybrid library CCmax; conditions: mean of both orientations
T39 chain: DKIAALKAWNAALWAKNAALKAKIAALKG

P2-AA = target: T40, P2-AA; assay: two-hybrid library CCmax; conditions: mean of both orientations
T40 chain: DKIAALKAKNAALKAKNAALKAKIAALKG

P3-AA = target: T41, P3-AA; assay: two-hybrid library CCmax; conditions: mean of both orientations
T41 chain: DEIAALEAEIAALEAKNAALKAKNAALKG

P4-AA = target: T42, P4-AA; assay: two-hybrid library CCmax; conditions: mean of both orientations
T42 chain: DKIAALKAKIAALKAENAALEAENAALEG

P7-AA = target: T43, P7-AA; assay: two-hybrid library CCmax; conditions: mean of both orientations
T43 chain: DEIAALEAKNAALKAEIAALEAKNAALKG

P8-AA = target: T44, P8-AA; assay: two-hybrid library CCmax; conditions: mean of both orientations
T44 chain: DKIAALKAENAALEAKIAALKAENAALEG

P9-AA = target: T45, P9-AA; assay: two-hybrid library CCmax; conditions: mean of both orientations
T45 chain: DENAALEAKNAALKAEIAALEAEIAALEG

zCON9_A = target: T46, zCON9_A; assay: two-hybrid library CCmax
T46 chain: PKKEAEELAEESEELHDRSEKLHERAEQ

zCON9_B = target: T47, zCON9_B; assay: two-hybrid library CCmax; conditions: mean of both orientations
T47 chain: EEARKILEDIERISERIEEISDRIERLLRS

zCON9_D = target: T48, zCON9_D; assay: two-hybrid library CCmax; conditions: mean of both orientations
T48 chain: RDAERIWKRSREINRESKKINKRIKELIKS

4H145-bA = target: T49, 4H145-bA; assay: two-hybrid library CCNG1; conditions: mean of both orientations
T49 chain: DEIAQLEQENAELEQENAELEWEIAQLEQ

4H2619-bA = target: T50, 4H2619-bA; assay: two-hybrid library CCNG1
T50 chain: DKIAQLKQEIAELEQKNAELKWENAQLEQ

4H2691-bA = target: T51, 4H2691-bA; assay: two-hybrid library CCNG1
T51 chain: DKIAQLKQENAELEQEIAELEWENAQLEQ

4H3070-bA = target: T52, 4H3070-bA; assay: two-hybrid library CCNG1; conditions: mean of both orientations
T52 chain: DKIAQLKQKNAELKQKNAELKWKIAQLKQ

4H342-bA = target: T53, 4H342-bA; assay: two-hybrid library CCNG1
T53 chain: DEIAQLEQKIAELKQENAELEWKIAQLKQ

4H3632-bA = target: T54, 4H3632-bA; assay: two-hybrid library CCNG1
T54 chain: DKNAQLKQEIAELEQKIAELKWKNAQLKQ

4H496-bA = target: T55, 4H496-bA; assay: two-hybrid library CCNG1
T55 chain: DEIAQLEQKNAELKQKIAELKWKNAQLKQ

interaction score (P1-AA): -1.9
interaction score (P10-AA): -0.307
interaction score (P11-AA): -1.27
interaction score (P12-AA): -0.335
interaction score (P2-AA-12HAA-D): -1.91
interaction score (P2-AA-12HAA-E): -0.168
interaction score (P2-AA-12HAA-H): 1.67
interaction score (P2-AA-12HAA-I): 1.38
interaction score (P2-AA-12HAA-K): 1.32
interaction score (P2-AA-12HAA-L): 0.342
interaction score (P2-AA-12HAA-R): 1.86
interaction score (P2-AA-12HAA-S): 1.74
interaction score (P2-AA-12HAA-T): 1.34
interaction score (P2-AA-12HAA-V): 1.26
interaction score (P2-AA-12HAA-Y): 1.57
interaction score (P2-AA-12HGe-A): 1.83
interaction score (P2-AA-12HGe-D): -1.71
interaction score (P2-AA-12HGe-E): 0.914
interaction score (P2-AA-12HGe-H): 2.06
interaction score (P2-AA-12HGe-M): 1.8
interaction score (P2-AA-12HGe-Q): 1.62
interaction score (P2-AA-12HGe-R): 2.37
interaction score (P2-AA-12HGe-S): 0.568
interaction score (P2-AA-12HGe-T): 1.19
interaction score (P2-AA-12HGe-W): 1.66
interaction score (P2-AA-1HAA-D): 1.71
interaction score (P2-AA-1HAA-E): 1.78
interaction score (P2-AA-1HAA-H): 2.1
interaction score (P2-AA-1HAA-I): 2.01
interaction score (P2-AA-1HAA-R): 1.51
interaction score (P2-AA-1HAA-S): 1.81
interaction score (P2-AA-1HAA-T): 1.69
interaction score (P2-AA-1HAA-V): 1.86
interaction score (P2-AA-1HGe-A): 2.03
interaction score (P2-AA-1HGe-D): 1.9
interaction score (P2-AA-1HGe-M): 1.87
interaction score (P2-AA-1HGe-Q): 1.97
interaction score (P2-AA-1HGe-T): 2.12
interaction score (P2-AA-1HGe-W): 2.42
interaction score (P2-AA): 2.11
interaction score (P3-AA): -0.804
interaction score (P4-AA): -1.71
interaction score (P7-AA): -1.7
interaction score (P8-AA): -1.57
interaction score (P9-AA): -1.49
interaction score (zCON9_A): -1.8
interaction score (zCON9_B): -1.67
interaction score (zCON9_D): -2.59
Binder: DEIAALEAENAALEAENAALEAEIAALEG [P1-AA]

interaction score (4H145-bA): -0.795
interaction score (4H2619-bA): -0.672
interaction score (4H2691-bA): -0.624
interaction score (4H3070-bA): 2.5
interaction score (4H342-bA): -1.12
interaction score (4H3632-bA): -1.06
interaction score (4H496-bA): -1.06
Binder: DEIAQLEQENAELEQENAELEWEIAQLEQ [4H145-bA]
